{"source": "patent US20030207791A1", "about": "(published 2003)", "proteins": {"B1": {"name": "isolated coiled coil domain of PML (other)", "chain": "SELKCDISAEIQQRQEELDAMTQALQALQEQDSAEGAVHAQMHAAVGQLGRARAETEELIRERVRQVVAHVRAQERELLEAVDARYQRDYEEMASRLGRLDAVLQRIRTGSALVQRMKCYASDQEVLDMHGFLRQALCRLR", "notes": "Expressed in BL21 as a GST fusion and freed by site-specific cleavage; also called CC; CC domain of PML"}, "B2": {"name": "AML1-ETO (other, UniProt Q01196 1-177, looked up)", "chain": "MRIPVDASTSRRFTPPSTALSPGKMSEALPLGAPDAGAALAGKLRSGDRSMVEVLADHPGELVRTDSPNFLCSVLPTHWRCNKTLPIAFKVVALGDVPDGTLVTVMAGNDENYSAELRNATAAMKNQVARFNDLRFVGRSGRGKSFTLTITVFTNPPQVATYHRAIKITVDGPREPRDRTEKHSTMPDSPVDVKTQSRLTPPTMPPPPTTQGAPRTSSFTPTTLTNGTSHSPTALNGAPSPPNGFSNGPSSSSSSSLANQQLPPACGARQLSKLKRFLTTLQQFGNDISPEIGERVRTLVLGLVNSTLTIEEFHSKLQEATNFPLRPFVIPFLKANLPLLQRELLHCARLAKQNPAQYLAQHEQLLLDASTTSPVDSSELLLDVNENGKRRTPDRTKENGFDREPLHSEHPSKRPCTISPGQRYSPNNGLSYQPNGLPHPTPPPPQHYRLDDMAIAHHYRDSYRHPSHRDLRDRNRPMGLHGTRQEEMIDHRLTDREWAEEWKHLDHLLNCIMDMVEKTRRSLTVLRRCQEADREELNYWIRRYSDAEDLKKGGGSSSSHSRQQSPVNPDPVALDAHREFLHRPASGYVPEEIWKKAEEAVNEVKRQAMTELQKAVSEAERKAHDMITTERAKMERTVAEAKRQAAEDALAVINQQEDSSESCWNCGRKASETCSGCNTARYCGSFCQHKDWEKHHHICGQTLQAQQQGDTPAVSSSVTPNSGAGSPMDTPPAATPRSTTPGTPSTIETTPR", "notes": "The plasmid list names pcDNA3-myc-AML1-ETO; Also made in bacteria as an MBP fusion, MBP removed by factor Xa; also called myc-AML1-ETO"}}, "key": {"[1]": {"molecular_target": "the molecule itself", "test": "gel filtration and in vitro cross-linking of the purified domain"}, "[2]": {"molecular_target": "the molecule itself", "test": "gel filtration"}}}
{"protein": "B1", "values": [{"measurement": "binding result", "setting": "[1]", "result": "binds"}]}
{"protein": "B2", "values": [{"measurement": "binding result", "setting": "[2]", "result": "binds"}]}
